Test results reported in US20230272119A1 (MARENGO THERAPEUTICS, published 2023).

What was measured:
[1] = molecular target: T1, α-IL6R heavy-LgBiT (SEQ ID NO: 125); experiment: NanoBiT, HC-LgBiT:LC-SmBiT:competing LC 1:1:1; competing lambda LC m66 (SEQ ID NO: 157)
T1 construct: VH-CH1-linker-LgBiT; germline VH3-9*01

[2] = molecular target: T1, α-IL6R heavy-LgBiT (SEQ ID NO: 125); experiment: NanoBiT, HC-LgBiT:LC-SmBiT:competing LC 1:1:1; competing lambda LC m48 (SEQ ID NO: 139)
[3] = molecular target: T1, α-IL6R heavy-LgBiT (SEQ ID NO: 125); experiment: NanoBiT, HC-LgBiT:LC-SmBiT:competing LC 1:1:1; competing lambda LC m45 (SEQ ID NO: 136)
[4] = molecular target: T1, α-IL6R heavy-LgBiT (SEQ ID NO: 125); experiment: NanoBiT, HC-LgBiT:LC-SmBiT:competing LC 1:1:1; competing lambda LC m63 (SEQ ID NO: 154)
[5] = molecular target: T1, α-IL6R heavy-LgBiT (SEQ ID NO: 125); experiment: NanoBiT, HC-LgBiT:LC-SmBiT:competing LC 1:1:1; competing lambda LC m54 (SEQ ID NO: 145)
[6] = molecular target: T2, α-IGF1R heavy-LgBiT (SEQ ID NO: 119); experiment: NanoBiT, HC-LgBiT:LC-SmBiT:competing LC 1:1:1; competing lambda LC m63 (SEQ ID NO: 154)
T2 construct: VH-CH1-linker-LgBiT; germline VH3-21*01

[7] = molecular target: T2, α-IGF1R heavy-LgBiT (SEQ ID NO: 119); experiment: NanoBiT, HC-LgBiT:LC-SmBiT:competing LC 1:1:1; competing lambda LC m51 (SEQ ID NO: 142)
[8] = molecular target: T2, α-IGF1R heavy-LgBiT (SEQ ID NO: 119); experiment: NanoBiT, HC-LgBiT:LC-SmBiT:competing LC 1:1:1; competing lambda LC m69 (SEQ ID NO: 160)
[9] = molecular target: T2, α-IGF1R heavy-LgBiT (SEQ ID NO: 119); experiment: NanoBiT, HC-LgBiT:LC-SmBiT:competing LC 1:1:1; competing lambda LC m72 (SEQ ID NO: 163)
[10] = molecular target: T3, α-neuropilin 1 heavy-LgBiT (SEQ ID NO: 131); experiment: NanoBiT, HC-LgBiT:LC-SmBiT:competing LC 1:1:1; competing lambda LC m66 (SEQ ID NO: 157)
T3 construct: VH-CH1-linker-LgBiT; germline VH3-66*01

[11] = molecular target: T3, α-neuropilin 1 heavy-LgBiT (SEQ ID NO: …); experiment: NanoBiT, HC-LgBiT:LC-SmBiT:competing LC 1:1:1; competing lambda LC m48 (SEQ ID NO: 139)
[12] = molecular target: T3, α-neuropilin 1 heavy-LgBiT (SEQ ID NO: …); experiment: NanoBiT, HC-LgBiT:LC-SmBiT:competing LC 1:1:1; competing lambda LC m45 (SEQ ID NO: 136)
[13] = molecular target: T3, α-neuropilin 1 heavy-LgBiT (SEQ ID NO: …); experiment: NanoBiT, HC-LgBiT:LC-SmBiT:competing LC 1:1:1; competing lambda LC m63 (SEQ ID NO: 154)
[14] = molecular target: T3, α-neuropilin 1 heavy-LgBiT (SEQ ID NO: …); experiment: NanoBiT, HC-LgBiT:LC-SmBiT:competing LC 1:1:1; competing lambda LC m51 (SEQ ID NO: 142)
[15] = molecular target: T3, α-neuropilin 1 heavy-LgBiT (SEQ ID NO: …); experiment: NanoBiT, HC-LgBiT:LC-SmBiT:competing LC 1:1:1; competing lambda LC m69 (SEQ ID NO: 160)
[16] = molecular target: T3, α-neuropilin 1 heavy-LgBiT (SEQ ID NO: …); experiment: NanoBiT, HC-LgBiT:LC-SmBiT:competing LC 1:1:1; competing lambda LC m54 (SEQ ID NO: 145)
[17] = molecular target: T3, α-neuropilin 1 heavy-LgBiT (SEQ ID NO: …); experiment: NanoBiT, HC-LgBiT:LC-SmBiT:competing LC 1:1:1; competing lambda LC m72 (SEQ ID NO: 163)
[18] = molecular target: T4, α-IFN heavy-LgBiT (SEQ ID NO: 107); experiment: NanoBiT, HC-LgBiT:LC-SmBiT:competing LC 1:1:1; competing lambda LC m48 (SEQ ID NO: 139)
T4 construct: VH-CH1-linker-LgBiT; germline VH5-51*01

[19] = molecular target: T4, α-IFN heavy-LgBiT (SEQ ID NO: 107); experiment: NanoBiT, HC-LgBiT:LC-SmBiT:competing LC 1:1:1; competing lambda LC m69 (SEQ ID NO: 160)
[20] = molecular target: T4, α-IFN heavy-LgBiT (SEQ ID NO: 107); experiment: NanoBiT, HC-LgBiT:LC-SmBiT:competing LC 1:1:1; competing lambda LC m72 (SEQ ID NO: 163)
[21] = molecular target: T5, α-IGF1R heavy-LgBiT (SEQ ID NO: 116); experiment: NanoBiT, HC-LgBiT:LC-SmBiT:competing LC 1:1:1; competing lambda LC m66 (SEQ ID NO: 157)
T5 construct: VH-CH1-linker-LgBiT; germline VH3-23*01

[22] = molecular target: T5, α-IGF1R heavy-LgBiT (SEQ ID NO: 116); experiment: NanoBiT, HC-LgBiT:LC-SmBiT:competing LC 1:1:1; competing lambda LC m60 (SEQ ID NO: 151)
[23] = molecular target: T5, α-IGF1R heavy-LgBiT (SEQ ID NO: 116); experiment: NanoBiT, HC-LgBiT:LC-SmBiT:competing LC 1:1:1; competing lambda LC m69 (SEQ ID NO: 160)
[24] = molecular target: T5, α-IGF1R heavy-LgBiT (SEQ ID NO: 116); experiment: NanoBiT, HC-LgBiT:LC-SmBiT:competing LC 1:1:1; competing lambda LC m54 (SEQ ID NO: 145)
[25] = molecular target: T5, α-IGF1R heavy-LgBiT (SEQ ID NO: 116); experiment: NanoBiT, HC-LgBiT:LC-SmBiT:competing LC 1:1:1; competing lambda LC m72 (SEQ ID NO: 163)
[26] = molecular target: T6, α-CD221 heavy-LgBiT (SEQ ID NO: 134); experiment: NanoBiT, HC-LgBiT:LC-SmBiT:competing LC 1:1:1; competing kappa LC m15 (SEQ ID NO: 106)
T6 construct: VH-CH1-linker-LgBiT; germline VH1-69*01

[27] = molecular target: T6, α-CD221 heavy-LgBiT (SEQ ID NO: 134); experiment: NanoBiT, HC-LgBiT:LC-SmBiT:competing LC 1:1:1; competing kappa LC m21 (SEQ ID NO: 112)
[28] = molecular target: T6, α-CD221 heavy-LgBiT (SEQ ID NO: 134); experiment: NanoBiT, HC-LgBiT:LC-SmBiT:competing LC 1:1:1; competing kappa LC m42 (SEQ ID NO: 133)
[29] = molecular target: T6, α-CD221 heavy-LgBiT (SEQ ID NO: 134); experiment: NanoBiT, HC-LgBiT:LC-SmBiT:competing LC 1:1:1; competing kappa LC m33 (SEQ ID NO: 124)
[30] = molecular target: T7, α-CSF2 heavy-LgBiT (SEQ ID NO: 101); experiment: NanoBiT, HC-LgBiT:LC-SmBiT:competing LC 1:1:1; competing lambda LC m66 (SEQ ID NO: 157)
T7 construct: VH-CH1-linker-LgBiT; germline VH1-3*01

[31] = molecular target: T7, α-CSF2 heavy-LgBiT (SEQ ID NO: 101); experiment: NanoBiT, HC-LgBiT:LC-SmBiT:competing LC 1:1:1; competing lambda LC m48 (SEQ ID NO: 139)
[32] = molecular target: T7, α-CSF2 heavy-LgBiT (SEQ ID NO: 101); experiment: NanoBiT, HC-LgBiT:LC-SmBiT:competing LC 1:1:1; competing lambda LC m69 (SEQ ID NO: 160)
[33] = molecular target: T7, α-CSF2 heavy-LgBiT (SEQ ID NO: 101); experiment: NanoBiT, HC-LgBiT:LC-SmBiT:competing LC 1:1:1; competing lambda LC m72 (SEQ ID NO: 163)

B1: α-IL6R light-SmBiT (SEQ ID NO: 126) (other)
light: DIQMTQSPSSVSASVGDRVTITCRASQGISSWLAWYQQKPGKAPKLLIYGASSLESGVPSRFSGSGSGTDFTLTISSLQPEDFASYYCQQANSFPYTFGQGTKLEIKRTVAAPSVFIFPPSDEQLKSGTASVVCLLNNFYPREAKVQWKVDNALQSGNSQESVTEQDSKDSTYSLSSTLTLSKADYEKHKVYACEVTHQGLSSPVTKSFNRGECGSSGGGGSGGGGSSGGVTGYRLFEEIL
notes: kappa light chain-linker-SmBiT; germline Vk1-12*01
[1]
  Percent pairing: 100%
[2]
  Percent pairing: 99%
[3]
  Percent pairing: 100%
[4]
  Percent pairing: 84%
[5]
  Percent pairing: 100%

B2: α-IGF1R light-SmBiT (SEQ ID NO: 120) (other)
light: EIVLTQSPGTLSVSPGERATLSCRASQSIGSSLHWYQQKPGQAPRLLIKYASQSLSGIPDRFSGSGSGTDFTLTISRLEPEDFAVYYCHQSSRLPHTFGQGTKVEIKRTVAAPSVFIFPPSDEQLKSGTASVVCLLNNFYPREAKVQWKVDNALQSGNSQESVTEQDSKDSTYSLSSTLTLSKADYEKHKVYACEVTHQGLSSPVTKSFNRGECGSSGGGGSGGGGSSGGVTGYRLFEEIL
notes: kappa light chain-linker-SmBiT; germline Vk3-20*01
[6]
  Percent pairing: 99%
[7]
  Percent pairing: 95%
[8]
  Percent pairing: 100%
[9]
  Percent pairing: 100%

B3: α-neuropilin 1 light-SmBiT (SEQ ID NO: 132) (other)
light: DIQMTQSPSSLSASVGDRVTITCRASQYFSSYLAWYQQKPGKAPKLLIYGASSRASGVPSRFSGSGSGTDFTLTISSLQPEDFATYYCQQYLGSPPTFGQGTKVEIKRTVAAPSVFIFPPSDEQLKSGTASVVCLLNNFYPREAKVQWKVDNALQSGNSQESVTEQDSKDSTYSLSSTLTLSKADYEKHKVYACEVTHQGLSSPVTKSFNRGECGSSGGGGSGGGGSSGGVTGYRLFEEIL
notes: kappa light chain-linker-SmBiT; germline Vk1-39*01
[10]
  Percent pairing: 100%
[11]
  Percent pairing: 100%
[12]
  Percent pairing: 100%
[13]
  Percent pairing: 100%
[14]
  Percent pairing: 84%
[15]
  Percent pairing: 100%
[16]
  Percent pairing: 100%
[17]
  Percent pairing: 100%

B4: α-IFN light-SmBiT (SEQ ID NO: 108) (other)
light: EIVLTQSPGTLSLSPGERATLSCRASQSVSSSFFAWYQQKPGQAPRLLIYGASSRATGIPDRLSGSGSGTDFTLTITRLEPEDFAVYYCQQYDSSAITFGQGTRLEIKRTVAAPSVFIFPPSDEQLKSGTASVVCLLNNFYPREAKVQWKVDNALQSGNSQESVTEQDSKDSTYSLSSTLTLSKADYEKHKVYACEVTHQGLSSPVTKSFNRGECGSSGGGGSGGGGSSGGVTGYRLFEEIL
notes: as for B2
[18]
  Percent pairing: 100%
[19]
  Percent pairing: 80%
[20]
  Percent pairing: 100%

B5: α-IGF1R light-SmBiT (SEQ ID NO: 117) (other)
light: DIQMTQSPSSLSASLGDRVTITCRASQGISSYLAWYQQKPGKAPKLLIYAKSTLQSGVPSRFSGSGSGTDFTLTISSLQPEDSATYYCQQYWTFPLTFGGGTKVEIKRTVAAPSVFIFPPSDEQLKSGTASVVCLLNNFYPREAKVQWKVDNALQSGNSQESVTEQDSKDSTYSLSSTLTLSKADYEKHKVYACEVTHQGLSSPVTKSFNRGECGSSGGGGSGGGGSSGGVTGYRLFEEIL
notes: kappa light chain-linker-SmBiT; germline Vk1-27*01
[21]
  Percent pairing: 95%
[22]
  Percent pairing: 81%
[23]
  Percent pairing: 100%
[24]
  Percent pairing: 84%
[25]
  Percent pairing: 96%

B6: α-CD221 light-SmBiT (SEQ ID NO: 135) (other)
light: SSELTQDPAVSVALGQTVRITCQGDSLRSYYATWYQQKPGQAPILVIYGENKRPSGIPDRFSGSSSGNTASLTITGAQAEDEADYYCKSRDGSGQHLVFGGGTKLTVLGQPKANPTVTLFPPSSEELQANKATLVCLISDFYPGAVTVAWKADGSPVKAGVETTKPSKQSNNKYAASSYLSLTPEQWKSHRSYSCQVTHEGSTVEKTVAPTECSGSSGGGGSGGGGSSGGVTGYRLFEEIL
notes: lambda light chain-linker-SmBiT; germline Vl3-19*01
[26]
  Percent pairing: 96%
[27]
  Percent pairing: 95%
[28]
  Percent pairing: 100%
[29]
  Percent pairing: 100%

B7: α-CSF2 light-SmBiT (SEQ ID NO: 102) (other)
light: EIVLTQSPATLSVSPGERATLSCRASQSVGTNVAWYQQKPGQAPRVLIYSTSSRATGITDRFSGSGSGTDFTLTISRLEPEDFAVYYCQQFNKSPLTFGGGTKVEIKRTVAAPSVFIFPPSDEQLKSGTASVVCLLNNFYPREAKVQWKVDNALQSGNSQESVTEQDSKDSTYSLSSTLTLSKADYEKHKVYACEVTHQGLSSPVTKSFNRGECGSSGGGGSGGGGSSGGVTGYRLFEEIL
notes: kappa light chain-linker-SmBiT; germline Vk3D-20*01
[30]
  Percent pairing: 93%
[31]
  Percent pairing: 100%
[32]
  Percent pairing: 98%
[33]
  Percent pairing: 83%
